The labels stand for the following.
B1: LINE1-full (parent)
chain: UACGUAGGUGGUUUUCCCCUGAUAGUGCUAAGGGGGCCUGGAAGUUUGGACUGGGCAGAGCUCAACACAGCGUGGCAAAGUGGCUGUGGCUAGACUGCCUCUCUGGAUUCCUCGUCACUCAGCAGGGCAUCUCUGAGAGAAAUGCC

20 variants from the RNAGym collection of RNA variant scans (doi:10.7554/elife.90254) can be followed below.

The variants in this series derive from B1. Nature of the series: self-cleavage, relative activity (ratio to wild type); higher = more cleavage; in vitro, sequencing; the parent is a self-cleaving ribozyme.
On to UACGUAGGUGGUUUUCCCCUGAUAGUGCUAUGGGGGCCUGGAAGUUUGGACUGGGCAGAGCUCAACACAGCGCGGCAAAGUGGCUGUGGCUAGACUGCCUCUCUGGAUUCCUCGUCACUCAGCAGGGCAUCUCUGAGAGAAAUGCC [A31U U73C], for which the self-cleavage was determined as 1.51.
On to UACGUAGGUGGUUUUCCCCUGAUAGUGCUAUGGGGGCCUGGAAGUUUGGACUGGGCAGAGCUCAACACAGCGUGGCAAAGCGGCUGUGGCUAGACUGCCUCUCUGGAUUCCUCGUCACUCAGCAGGGCAUCUCUGAGAGAAAUGCC [A31U U81C], for which the self-cleavage stood at 0.75.
Then UACGUAGGUGGUUUUCCCCUGAUAGUGCUAUGGGGGCCUGGAAGUUUGGACUGGGCAGAGCUCAACACAGCGUGGCAAAGUGGCUGUGGCUAGACUGCCUCCCUGGAUUCCUCGUCACUCAGCAGGGCAUCUCUGAGAGAAAUGCC [A31U U102C], with 1.05; and UACGUAGGUGGUUUUCCCCUGAUAGUGCUAUGGGGGCCUGGAAGUUUGGACUGGGCAGAGCUCAACACAGCGUGGCAAAGUGGCUGUGGCUAGACUGCCUCACUGGAUUCCUCGUCACUCAGCAGGGCAUCUCUGAGAGAAAUGCC [A31U U102A], with 1.91; and UACGUAGGUGGUUUUCCCCUGAUAGUGCUAUGGGGGCCUGGAAGUUAGGACUGGGCAGAGCUCAACACAGCGUGGCAAAGUGGCUGUGGCUAGACUGCCUCUCUGGAUUCCUCGUCACUCAGCAGGGCAUCUCUGAGAGAAAUGCC [A31U U47A], with 0.77.
Then UACGUAGGUGGUUUUCCCCUGAUAGUGCUAUGGGGGCCUGGAAGUUUGGACUGGGCAGAGCUCAACACAGCGUGGCAAAGUGGCUGUGGCCAGACUGCCUCUCUGGAUUCCUCGUCACUCAGCAGGGCAUCUCUGAGAGAAAUGCC [A31U U91C], with 0.38.
For the variant UACGUAGGUGGUUUUCCCCUGAUAGUGCUAUGGGGGCCUGGAAGUUUGGACUGGGCAGAGCUCAACACAGCGUGGCAAAGUGGCUGUGGCUAGACUGCCUCUCUGGAUUCCACGUCACUCAGCAGGGCAUCUCUGAGAGAAAUGCC [A31U U112A], the self-cleavage was 1.8.
Take UACGUAGGUGGUUUUCCCCUGAUAGUGCUAUGGGGGCCUGGAAGUUUGGACUGGGCAGAGCUCAACACAGCGUGGCAAAGUGGCUGUGGCUAGACUGCCUCUCCGGAUUCCUCGUCACUCAGCAGGGCAUCUCUGAGAGAAAUGCC [A31U U104C]: the self-cleavage turned out to be 1.3.
Then UACGUAGGUGGUUUUCCCCUGAUAGUGCUAUGGGGGCCUGGAAGUUUGGACUGGGCAGAGCUCAACACAGCGUGGCAAAGUGGCUGCGGCUAGACUGCCUCUCUGGAUUCCUCGUCACUCAGCAGGGCAUCUCUGAGAGAAAUGCC [A31U U87C], with 0.24; and UACGUAGGUGGUUUUCCCCUGAUAGUGCUAUGGGGGCCUGGAAGUUUGGACUGGGCAGAGCUCAACACAGCGUGGCAAAGUGGCUGUGGCUAGACUGCCUCUCUGGAUUCCUCGUCACUCAGCAGGGCAUCUCAGAGAGAAAUGCC [A31U U134A], with 0.9; and UACGUAGGUGGUUUUCCCCUGAUAGUGCUAUGGGGGCCUGGAAGUUUGGACUGGGCAGAGCUCAACACAGCGUGGCAAAGUGGCUGUGGCUAGACUGCCUCUCUGGAUUCCUCGACACUCAGCAGGGCAUCUCUGAGAGAAAUGCC [A31U U115A], with 1.08.
For UACGUAGGUGGUUUUCCCCUGAUAGUGCUAUGGGGGCCUGGAAGUUUGGACUGGGCAGAGCUCAACACAGCGUGGCAAAGUGGCCGUGGCUAGACUGCCUCUCUGGAUUCCUCGUCACUCAGCAGGGCAUCUCUGAGAGAAAUGCC [A31U U85C], the self-cleavage was 0.28.
The same measure for UACGUAGGUGGUUUUCCCCUGAUAGUGCUAUGGGGGCCUGGAAGUUUGGACUGGGCAGAGCUCAACACAGCGUGGCAAAGUGGCAGUGGCUAGACUGCCUCUCUGGAUUCCUCGUCACUCAGCAGGGCAUCUCUGAGAGAAAUGCC [A31U U85A]: 0.07; for UACGUAGGUGGUUUUCCCCUGAUAGUGCUAUGGGGGCCUGGAAGUUUGGACUGGGCAGAGCUCAACACAGCGUGGCAAAGUGGCUGUGGCUAGACUGCCUCUCUGGAUUCCUCGUCACACAGCAGGGCAUCUCUGAGAGAAAUGCC [A31U U119A]: 1.17; for UACGUAGGUGGUUUUCCCCUGAUAGUGCUAUGGGGGCCUGGAAGUUUGGACUGGGCAGAGCUCAACACAGCGUGGCAAAGUGGCUGUGGCUAGACUGCCUCUCUGGACUCCUCGUCACUCAGCAGGGCAUCUCUGAGAGAAAUGCC [A31U U108C]: 1.3.
The same measure for UACGUAGGUGGUUUUCCCCUGAUAGUGCUAUGGGGGCCUGGAAGUUUGGACUGGGCAGAGCUCAACACAGCGUGGCAAAGUGGCUGUGGCUAGACUGCCGCUCUGGAUUCCUCGUCACUCAGCAGGGCAUCUCUGAGAGAAAUGCC [A31U U100G]: 1.23.
For UACGUAGGUGGUUUUCCCCUGAUAGUGCUAUGGGGGCCUGGAAGUUUGGACUGGGCAGAGCUCAACACAGCGUGGCAAAGUGGCUGUGGCUAGACUGCCACUCUGGAUUCCUCGUCACUCAGCAGGGCAUCUCUGAGAGAAAUGCC [A31U U100A], the self-cleavage amounted to 0.67.
Then UACGUAGGUGGUUUUCCCCUGAUAGUGCUAUGGGGGCCUGGAAGUUUGGACUGGGCAGAGCUCAACACAGCGUGGCAAAGUGGCUGUGGCUAGACUGCCCCUCUGGAUUCCUCGUCACUCAGCAGGGCAUCUCUGAGAGAAAUGCC [A31U U100C], with 1.41; and UACGUAGGUGGUUUUCCCCUGAUAGUGCUAUGGGGGCCUGGAAGUUUGGACUGGGCAGAGCUCAACACAGCGUGGCAAAGUGGCUGUGGCUAGACUGCCUCUCUGGAUUCCUCGUCACUCAGCAGGGCAUCCCUGAGAGAAAUGCC [A31U U132C], with 1.39.
The same measure for UACGUAGGUGGUUUUCCCCUGAUAGUGCUAUGGGGGCCUGGAAGUUUGGACUGGGCAGAGCUCAACACAGCGUGGCAAAGUGGCUGUGGCUAGACUGCCUCUCUGGAUUCCUCGUCACUCAGCAGGGCAACUCUGAGAGAAAUGCC [A31U U130A]: 1.53.
